In the experiment the target is TcdB1 holotoxin (recombinant full-length TcdB1, VPI10463 strain, expressed in Bacillus megaterium) (Clostridium difficile, VPI10463 strain) (UniProt P18177). Put plainly: cell-based or functional assay.

Fab fragment of bezlotoxumab: the cell rounding assay on HeLa cells, TcdB1 10 pM, 6 h: reduction of cell-rounding at 2 µM (% reduction of cell-rounding at 2 µM) was 40.

The record behind these values is patent publication US20240033354A1.
